Assay results taken from publication doi:10.1101/2022.12.23.521728 (bioRxiv, 2022).

Molecular target: ATP synthase F1 α subunit of G. stearothermophilus FoF1 (G. stearothermophilus, UniProt P09219 1-502)
Test: cryo-EM structure

ATP synthase F1 α subunit of G. stearothermophilus FoF1, sequence (P09219 whole entry): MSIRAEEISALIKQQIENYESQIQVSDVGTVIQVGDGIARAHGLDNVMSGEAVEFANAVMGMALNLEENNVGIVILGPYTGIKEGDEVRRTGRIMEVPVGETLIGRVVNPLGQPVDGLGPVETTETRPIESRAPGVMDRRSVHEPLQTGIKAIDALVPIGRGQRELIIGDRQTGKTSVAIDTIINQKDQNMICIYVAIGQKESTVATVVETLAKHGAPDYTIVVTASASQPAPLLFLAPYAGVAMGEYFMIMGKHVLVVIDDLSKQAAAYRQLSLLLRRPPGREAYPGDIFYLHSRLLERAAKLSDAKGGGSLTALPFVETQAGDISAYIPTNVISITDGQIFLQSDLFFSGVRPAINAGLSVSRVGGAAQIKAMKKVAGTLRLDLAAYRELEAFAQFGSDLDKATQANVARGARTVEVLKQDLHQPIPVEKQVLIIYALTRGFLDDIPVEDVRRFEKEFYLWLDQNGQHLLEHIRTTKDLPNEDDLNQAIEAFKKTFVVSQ

B1: ATP synthase F1 γ subunit of G. stearothermophilus FoF1 (natural protein)
chain: ASLRDIKTRINATKKTSQITKAMEMVLTSKLNRAEKREIVRPYMEKIQEVVANVALAARASHPMLVSRPVKKTGYLVITSDRGLAGAYNSNVLRLVYQTIQKRHASPDEYAIIVIGRVGLSFFRKRNMPVILDITRLPDQPSFADIKEIARKTVGLFADGTFDELYMYYNHYVSAIQQEVTERKLLPLTDLAENKQRTVYEFEPSQEEILDVLLPQYAESLIYGALLDAKASEHAARMTAMKNATDNANELIRTLTLSYNRARQAAITQEITEIVAGANALQ
- binding result: binds
